Paper PMC6335420, “The cell cycle regulator GpsB functions as cytosolic adaptor for multiple cell wall enzymes” (Nature Communications, 2019)
“Also recorded” adds a separate entry of the source. Residues, ends and D or L forms follow the SMILES beside them. No end group written: not given here. *: point of attachment. X1 = CN(C)c1ccc2c(-c3ccc(N4C(=O)CC(*)C4=O)cc3C(=O)[O-])c3ccc(=[N+](C)C)cc-3oc2c1

B1: full-length BsGpsB (Bacillus subtilis GpsB) (natural protein, B. subtilis, UniProt P0CI74 1-98, looked up)
chain: MLADKVKLSAKEILEKEFKTGVRGYKQEDVDKFLDMIIKDYETFHQEIEELQQENLQLKKQLEEASKKQPVQSNTTNFDILKRLSNLEKHVFGSKLYD
notes: GpsB, Bacillus subtilis; purification of the full-length protein is not described here; source: E. coli BL21(DE3) used for recombinant protein production)
B2: BsPBP1_(1-32), TAMRA-labelled at position 16 (peptide, UniProt P39793 1-32, looked up)
peptide: MSDQFNSREARRKANC(TAMRA (maleimide))KSSPSPKKGKKRKKGG
notes: PBP1, Bacillus subtilis, residues 1-32; also called BsPBPA1_(1-32); BsPBP1A_(1-32); source: E. coli, His-tagged MBP fusion purified (Ni-NTA), labelled, TEV-cleaved, ultrafiltration
B3: SpGpsB_(4-63) (domain or fragment, S. pneumoniae R6, UniProt Q8DR57 4-63, looked up)
chain: IIFSAKDIFEQEFGREVRGYNKVEVDEFLDDVIKDYETYAALVKSLRQEIADLKEELTRK
notes: GpsB, Streptococcus pneumoniae R6, residues 4-63; also called slightly truncated form of the N-terminal domain of SpGpsB; source: E. coli, purified (Ni-NTA, TEV, Superdex 75); not shown: His6, N-terminal, cleaved
B4: SpGpsB_(1-63) (domain or fragment)
chain: MASIIFSAKDIFEQEFGREVRGYNKVEVDEFLDDVIKDYETYAALVKSLRQEIADLKEELTRK
notes: GpsB, Streptococcus pneumoniae R6, residues 1-63 (stop codon in place of Pro64); also called N-terminal domain of SpGpsB; wildtype SpGpsB_(1-63); source: E. coli, purified (Ni-NTA, thrombin, ammonium sulphate precipitation, gel filtration)
B5: SpPBP2a_(27-40) (peptide, UniProt Q8DNB6 27-40, looked up)
peptide: TILRRSRSDRKKLA
notes: PBP2a, Streptococcus pneumoniae, residues 27-40; also called 14-residue peptide of SpPBP2a; source: synthetic peptide

How the values were obtained:
[1] = target: T1, BsGpsB1-68Tyr25Phe (Bacillus subtilis, UniProt P0CI74, Y25F); experiment: Fluorescence polarisation binding to BsGpsB1-68Tyr25Phe; settings: FP, BsGpsB Tyr25Phe relative to wild-type BsGpsB1-68
T1 construct: correspond to BsGpsB1-68^Asp31Ala and BsGpsB1-68^Tyr25Phe mutants, respectively; His6 (N, cleaved yes); made in house; host or cells: E. coli BL21(DE3)
T1 sequence (P0CI74 1-68 Y25F): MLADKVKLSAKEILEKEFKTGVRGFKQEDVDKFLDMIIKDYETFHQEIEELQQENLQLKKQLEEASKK
Description: (§1) 75 the BsGpsB5-64:BsPBP11-17 complex.

[2] = Circular dichroism of PBP peptides (helicity); type: physicochemical; settings: CD, 222 nm, 4 °C, 20 mM sodium phosphate pH 7.3, 25 μM peptide
Description: CD spectra were recorded on a JASCO J-810 spectropolarimeter with a PTC-4235 Peltier temperature controller using 1 mm path length quartz cuvettes. For full wavelength scans a scan speed of 10 nm^−1min^−1 and a response time of 4 s were used, the final spectra were the average of at least four measurements. BsPBP1_1-32 CD spectra were recorded at 4 °C in a buffer of 20 mM sodium phosphate, pH 7.3 at a peptide concentration of 25 μM. Peptide helical contents were estimated from molar ellipticities at 222 nm using the equation helix = [θ]222 nm / (39,500(1–2.57/n))[78] where n is the number of residues in the peptide. LmPBPA1_1-15 CD spectra were analysed at 40 μM in 20 mM sodium phosphate buffer, pH 7.8, for samples containing 0, 40 and 60% trifluoroethanol (TFE). For samples containing 80% TFE, 5 mM sodium phosphate buffer, pH 7.8, was used. The CD spectra of BsGpsB1-68 proteins were measured at a concentration of 4.5 μM in a buffer of 20 mM sodium phosphate (pH 7.8) 150 mM NaCl. For thermal melt experiments, a response time of 8 s and scan rate of 1 °C^−1min^−1 were used. All thermal melts were reversible as CD spectra recorded before and after the melts in the wavelength range 200–240 nm could be superimposed.

[3] = target: T2, BsGpsB1-68Asp35Ala (Bacillus subtilis, UniProt P0CI74, D35A); experiment: Fluorescence polarisation binding to BsGpsB1-68Asp35Ala; settings: FP, BsGpsB1-68Asp35Ala relative to wild-type BsGpsB1-68
T2 construct: Glu17Ala, Asp31Ala and Asp35Ala mutations were introduced to the BsGpsB1-68 expression construct plasmid; His6 (N, cleaved yes); made in house; host or cells: E. coli BL21(DE3)
T2 sequence (P0CI74 1-68 D35A): as the sequence (P0CI74 1-68 Y25F) above, with F25Y, D35A counted along it
Description: as §1

[4] = target: T3, BsGpsB1-68Glu17Ala (Bacillus subtilis, UniProt P0CI74, E17A); experiment: Fluorescence polarisation binding to BsGpsB1-68Glu17Ala; settings: FP, BsGpsB1-68Glu17Ala relative to wild-type BsGpsB1-68
T3 construct: Glu17Ala, Asp31Ala and Asp35Ala mutations were introduced to the BsGpsB1-68 expression construct plasmid; His6 (N, cleaved yes); made in house; host or cells: E. coli BL21(DE3)
T3 sequence (P0CI74 1-68 E17A): as the sequence (P0CI74 1-68 Y25F) above, with E17A, F25Y counted along it
Description: as §1

[5] = target: T4, BsGpsB1-68Asp31Ala (Bacillus subtilis, UniProt P0CI74, D31A); experiment: Fluorescence polarisation binding to BsGpsB1-68Asp31Ala; settings: FP, BsGpsB Asp31Ala relative to wild-type BsGpsB1-68
T4 construct: Glu17Ala, Asp31Ala and Asp35Ala mutations were introduced to the BsGpsB1-68 expression construct plasmid; His6 (N, cleaved yes); made in house; host or cells: E. coli BL21(DE3)
T4 sequence (P0CI74 1-68 D31A): as the sequence (P0CI74 1-68 Y25F) above, with F25Y, D31A counted along it
Description: as §1

[6] = target: full-length BsPBP1; experiment: SPR binding to immobilised full-length BsPBP1; design: species or system Bacillus subtilis
Description: (§2) BsPBP1 and BsPBP1_17-914 were immobilised on the surface of a CM5 chip (GE Healthcare). For the BsPBP1/YrrSΔ13-16 titration 800 RUs of BsPBP1 were immobilised on the chip surface; for the BsPBP1/BsGpsB titration 1200 RUs of BsPBP1 were immobilised. YrrSΔ13-16, which lacks residues 13–16 in the cytoplasmic domain, was used in these experiments to minimise non-specific interactions with the chip matrix; binding of YrrSΔ13-16 to the reference surface was negligible and the deletion of residues 13–16 leaves the GpsB-binding motif intact. The YrrSΔ13-16 titration was carried out in single-cycle mode, without regenerating the surface between successive injections of protein, because harsh reagents were necessary for full surface regeneration.

[7] = test system: BsPBP1_17-914; experiment: SPR binding to immobilised BsPBP1_17-914; design: species or system Bacillus subtilis; settings: chip coated with BsPBP1_17-914, even when 25 µM BsGpsB injected
Description: as §2

[8] = target: T5, full-length BsPBP1 (Bacillus subtilis PBP1) (B. subtilis, UniProt P39793 1-914); experiment: SPR; BsPBP1 or BsPBP1_(17-914) immobilised on a CM5 chip (1200 RUs of BsPBP1); BsGpsB injected; 10 mM Tris.HCl pH 8.0, 250 mM NaCl, 0.1% reduced Triton X-100; settings: both partners purified
T5 construct: also called wild-type BsPBP1; source: E. coli, purified from membrane pellets (His select resin, thrombin, Superdex S200)
T5 sequence (looked up): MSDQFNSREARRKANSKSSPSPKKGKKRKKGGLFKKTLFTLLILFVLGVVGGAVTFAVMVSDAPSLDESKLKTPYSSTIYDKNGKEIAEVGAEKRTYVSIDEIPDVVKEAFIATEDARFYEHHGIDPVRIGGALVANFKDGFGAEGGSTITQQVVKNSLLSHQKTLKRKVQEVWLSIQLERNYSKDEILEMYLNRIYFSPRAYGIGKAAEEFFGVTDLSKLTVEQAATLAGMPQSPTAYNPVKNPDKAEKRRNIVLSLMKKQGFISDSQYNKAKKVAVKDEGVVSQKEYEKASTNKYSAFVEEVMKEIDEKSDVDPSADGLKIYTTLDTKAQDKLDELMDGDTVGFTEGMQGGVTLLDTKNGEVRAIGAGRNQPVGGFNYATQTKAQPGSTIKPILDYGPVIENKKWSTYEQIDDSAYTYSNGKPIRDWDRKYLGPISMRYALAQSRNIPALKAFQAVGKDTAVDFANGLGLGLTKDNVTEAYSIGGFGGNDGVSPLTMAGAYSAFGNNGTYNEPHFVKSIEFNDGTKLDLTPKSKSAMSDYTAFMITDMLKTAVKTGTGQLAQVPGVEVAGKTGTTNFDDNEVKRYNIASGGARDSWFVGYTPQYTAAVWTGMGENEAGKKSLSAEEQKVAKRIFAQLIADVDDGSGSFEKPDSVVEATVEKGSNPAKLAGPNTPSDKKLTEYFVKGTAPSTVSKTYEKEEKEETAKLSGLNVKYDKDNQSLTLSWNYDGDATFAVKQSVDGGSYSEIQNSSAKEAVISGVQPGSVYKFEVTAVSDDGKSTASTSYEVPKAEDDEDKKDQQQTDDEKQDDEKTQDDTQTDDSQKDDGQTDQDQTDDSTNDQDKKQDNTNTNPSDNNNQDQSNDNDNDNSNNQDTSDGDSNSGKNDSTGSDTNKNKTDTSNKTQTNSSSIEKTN

[9] = target: T6, BsGpsB_(1-68) (B. subtilis, UniProt P0CI74 1-68); experiment: fluorescence polarisation; GpsB protein titrated into fluorescently labelled peptide; 10 mM Tris.HCl pH 8.0, 250 mM NaCl, 0.1% reduced Triton X-100; fit to a 1:1 interaction model; settings: both partners purified
T6 construct: GpsB, Bacillus subtilis, residues 1-68; also called N-terminal domain of BsGpsB; source: E. coli, purified (Ni-NTA, thrombin, size exclusion)
T6 sequence (looked up): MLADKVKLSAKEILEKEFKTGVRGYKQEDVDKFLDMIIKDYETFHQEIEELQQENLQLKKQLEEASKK

[10] = target: B1; experiment: as above; settings: both partners purified
[11] = target: the molecule itself; experiment: crystal structure; co-crystallisation of GpsB N-terminal domain with PBP peptide, 1:5 molar ratio protein:peptide, room temperature
[12] = target: T7, SpPBP2a_(23-45)^Arg31Lys, TAMRA-labelled (S. pneumoniae R6, UniProt Q8DNB6 23-45, Gly43 to cysteine | Arg31Lys, TAMRA (maleimide) label); experiment: fluorescence polarisation; settings: both partners purified
T7 construct: also called SpPBP2a^Arg31Lys; source: E. coli, His-tagged MBP fusion purified (Ni-NTA), labelled, TEV-cleaved, ultrafiltration
T7 peptide: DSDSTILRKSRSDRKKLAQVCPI

[13] = target: T8, SpPBP2a_(23-45)^Arg31Lys,Arg33Lys, TAMRA-labelled (S. pneumoniae R6, UniProt Q8DNB6 23-45, Gly43 to cysteine | Arg31Lys | Arg33Lys, TAMRA (maleimide) label); experiment: fluorescence polarisation; settings: both partners purified
T8 construct: also called SpPBP2a^Arg31Lys,Arg33Lys; source: E. coli, His-tagged MBP fusion purified (Ni-NTA), labelled, TEV-cleaved, ultrafiltration
T8 peptide: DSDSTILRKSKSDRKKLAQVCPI

[14] = target: Fluorescein-SpPBP2b1-17 (S. pneumoniae R6); experiment: fluorescence polarisation; GpsB protein titrated into TAMRA- or fluorescein-labelled peptide; 10 mM Tris.HCl pH 8.0, 250 mM NaCl, 0.1% reduced Triton X-100; all data fitted to a 1:1 interaction model, Kd ± standard error
[15] = target: B3; experiment: crystal structure; co-crystallisation of GpsB N-terminal domain with PBP peptide, 1:5 molar ratio protein:peptide, room temperature; settings: both partners purified

In the case of CSCC[C@H](NC(=O)[C@H](CO)NC(=O)CN)C(=O)N[C@@H](C)C(=O)N[C@@H](CC(=O)O)C(=O)N[C@@H](CCC(N)=O)C(=O)N[C@@H](Cc1ccccc1)C(=O)N[C@@H](CC(N)=O)C(=O)N[C@@H](CO)C(=O)N[C@@H](CCCNC(=N)N)C(=O)N[C@@H](CCC(=O)O)C(=O)N[C@@H](C)C(=O)N[C@@H](CCCNC(=N)N)C(=O)N[C@@H](CCCNC(=N)N)C(=O)N[C@@H](CCCCN)C(=O)N[C@@H](C)C(=O)N[C@@H](CC(N)=O)C(=O)N[C@@H](CSC1CC(=O)N(c2ccc(-c3c4ccc(=[N+](C)C)cc-4oc4cc(N(C)C)ccc34)c(C(=O)[O-])c2)C1=O)C(=O)N[C@@H](CCCCN)C(=O)N[C@@H](CO)C(=O)N[C@@H](CO)C(=O)N1CCC[C@H]1C(=O)N[C@@H](CO)C(=O)N1CCC[C@H]1C(=O)N[C@@H](CCCCN)C(=O)N[C@@H](CCCCN)C(=O)NCC(=O)N[C@@H](CCCCN)C(=O)N[C@@H](CCCCN)C(=O)N[C@@H](CCCNC(=N)N)C(=O)N[C@@H](CCCCN)C(=O)N[C@@H](CCCCN)C(=O)NCC(=O)NCC(=O)O (some centres unmarked) [TAMRA-BsPBP11-32] (H-GSMADQFNSREARRKANC(X1)KSSPSPKKGKKRKKGG-OH), the “reduction in affinity on GpsB mutation” value [1] is reported as “more than 8 fold”, the “helical residues corresponding to helical content” value [2] is reported as ~ 5 residues and the α-helical content ([2]; average of at least four measurements) is reported as 14%. For the same molecule, the “reduction in affinity on GpsB mutation” value [3] was “more than 8 fold”, the “reduction in affinity on GpsB mutation” value [4] was “more than 8 fold” and the “reduction in affinity on GpsB mutation” value [5] was “more than 8 fold”.

With B1 the Kd ([6]; SPR, PBP1-coated chip, full-length GpsB data fit 1:1 only over limited concentration range (avidity), BsGpsB1-68 supports 1:1, peer review file, read-out: affinity / Kd by SPR) was 0.7 µM, the “SPR binding (in words)” value ([6]; chip coated with wild-type BsPBP1 (1200 RU), submicromolar BsGpsB) was “submicromolar concentrations of BsGpsB bound to chips coated with the wild-type BsPBP1” and the “SPR binding (in words)” value [7] was “does not interact; also recorded: no interaction”. B1: binds [8].

B2: binds [9]; binds [10].

B3: binds [11].

For B4, the “fold reduction in affinity against wild type” value [12] was 2 fold, the “fold reduction in affinity against wild type” value [13] was greater than 25 fold and the Kd [14] was greater than 3600 µM.

B5: binds [15].
